From patent US20250277030A1, “ANTI-NAPI2B ANTIBODIES AND METHODS OF USE” (Zymeworks BC Inc., priority 2022, published 2025) come the findings set out here.

The subject of data set [1] is NCI-H441 cells. The experiment in a line: Internalization by flow cytometry in NCI-H441 cells. The note with it: antibody 10 nM. The format is cell-based, human. How it is done: Briefly, antibodies were fluorescently labeled by coupling to a Fab fragment AF488 conjugate targeting anti-Human IgG Fe (Jackson Immuno Research Labs, West Grove, PA; Cat. No. 109-547-008) at a 1:1 molar ratio in PBS pH 7.4 (Thermo Fisher Scientific, Waltham, MA; Cat. No. 10010-023), for 24 hours at 4° C. Cells were seeded at 50,000 cells/well in RPMI 1640, ATCC modification (Thermo Fisher Scientific, Waltham, MA) supplemented with 10% fetal bovine serum (Thermo Fisher Scientific, Waltham, MA) in 48-well plates and incubated overnight under standard culturing conditions (37° C./5% CO2) to allow attachment. […] Following incubation, cells were dissociated, washed, and surface AF488 fluorescence was quenched using an anti-AF488 antibody (Life Technologies, Carlsbad, CA; Cat. No. A-11094) at 100 nM for 30 minutes at 4° C. […] (internalized fluorescence) was detected by flow cytometry on a BD LSRFortessa™ Cell Analyzer (BD Biosciences, Franklin Lake, NJ) with 1,000 minimum events collected per well. The AF488/FITC-A GeoMean (fluorescence signal geometric mean, proportional to anti-Human Fab AF488 labelling) was calculated for the live single cell population using FlowJo™ Version 10.8.1 (BD Biosciences, Franklin Lake, NJ) and plotted using GraphPad Prism Version 9 (GraphPad Software, San Diego, CA).
For orientation: In flow cytometry, cells or beads pass a laser one at a time.

The nature of data set [2]: AC-SINS self-aggregation propensity. It counts as physicochemical. The note with it: 0.05 mg/mL in PBS pH 7.4; cutoff 10 nm = high self-aggregation propensity. How it is done: (§1) The isoelectric point was measured by capillary isoelectric focusing (cIEF), the propensity for self-aggregation was measured by Affinity-capture self-interaction nanoparticle spectroscopy (AC-SINS) and non-specific binding was measured by NS-ELISA, as described below.
AC-SINS method was carried out in a 384-well plate format (Corning®#3702). Initially, 20 nm gold nanoparticles (Ted Pella, Inc., #15705) washed with 0.22 μm filtered Gibco™ Distilled Water were coated with a mixture of capture antibody—80% AffiniPure Goat Anti-Human IgG (H+L) (Jackson ImmunoResearch Laboratories® #109-005-088), and the non-capture antibody −20% ChromPure Goat IgG, whole molecule (Jackson ImmunoResearch Laboratories® #005-000-003), that were initially buffer exchanged into 20 mM sodium acetate pH 4.3 and diluted to 0.4 mg/mL. […] The absorbance was read from 450-700 nm at 1 nm increments, and a Microsoft Excel macro was used to identify the max absorbance, smooth the data, and fit the data using a second-order polynomial. The Alambda (nm) was calculated based on the smoothed max absorbance of the average blank (PBS alone) subtracted from the smoothed max absorbance of the antibody sample to determine the antibody AC-SINS score. Antibody-antibody interactions directly correlate with the shift in maximum absorbance wavelength of gold nanoparticles coated with the antibody of interest. […]

The nature of data set [3]: NS-ELISA non-specific binding, heparin. The note with it: mAb at 100 nM. How it is done:
as §1
NS-ELISA was used to measure the propensity of the antibodies to bind to a range of biomolecules to emulate the undesirable non-specific interactions to biological matrices in vivo as described below.
NS-ELISA was carried out in Corning®96-well EIA/RIA Easy Wash™ Clear Flat Bottom Polystyrene High Bind Microplate coated overnight at 4° C. with 50 μL of Heparin (Sigma, H3149) diluted with 50 mM sodium carbonate pH 9.6 to a final concentration of 250 μg/mL. The plate was incubated for 2 days at room temperature, wells that were coated with heparin were not covered to allow air dry. […] Reactions were stopped after approximately 10 minutes by adding 100 μL of 1 M HCl to each well, and absorbance was read at 450 nm. Binding scores were calculated as the ratio of the ELISA signal of the antibody (antibody-treated) to the signal of a well containing buffer instead of the primary antibody (untreated). The cutoffs considered for each binding molecule (ssDNA, KLH, insulin, dsDNA and heparin) were internally calculated, based on the average of Zymeworks Inc. produced antibodies and antibodies benchmarks published in the literature.

B1: v29456: humanized anti-NaPi2b IgG1/kappa antibody H1L2; VH SEQ ID NO:24, VL SEQ ID NO:29 (antibody, V domains shown)
VH: QVQLVQSGAEVKKPGASVKVSCKASGFTFTSYNVHWVRQAPGQGLEWMGAISPGNGDLSYAQKFQGRVTMTRDTSTSTVYMELSSLRSEDTAVYYCARGRTGMGAVDYWGQGTLVTVSS
VL: DVQMTQSPSSLSASVGDRVTITCRASQDVYSYLNWYQQKPGKAVKLLIYYTSRLQSGVPSRFSGSGSGTDYTLTISSLQPEDFATYYCQQYNIFPWTFGQGTKLEIK
modifications: v29452, v29456, v29460 VH (H1); v29453, v29454, v29455, v29456 VL (L2)
As for B1, the “Internalized Fluorescence Fold-Over Palivizumab” value is 2.4 fold in data set [1] (NCI-H441, 5 hrs) and 4.0 fold in data set [1] (NCI-H441, 24 hrs). Also, the “AC-SINS Δlambda (nm)” value in data set [2] is reported as 2.5 nm. The “NS-ELISA binding score (ratio of signal between antibody-treated and untreated), Heparin” value in data set [3] was 1.06.
